From the supplement of paper PMC9170038

System: MS2 coat protein
Experiment: apparent KD of MS2 coat protein; designed switch direction (-1 OFF switch, 1 ON switch): 1; higher = weaker reporter binding
Summary of the method: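 Each step of the titration lasted 0.8–1.5 h at the lowest concentration and 10–20 min at the highest. The protein, SNAP-549-labelled MS2 coat protein, went from 0.7 or 1.5 nM doubling to 3 µM over RNA switches transcribed on Illumina chips by stalled E. coli RNA polymerase. Normalised cluster fluorescence was curve-fitted, and the per-design median over clusters is given as apparent KD.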

[1] = Eterna round: R95, input ligand: FMN 200 uM
[2] = Eterna round: R95, input ligand: microRNA oligo, concentration not stated
[3] = Eterna round: R95, input ligand: none
[4] = input ligand: microRNA oligo, concentration not stated

Sequence | apparent KD of MS2 coat protein [1] [nM] | apparent KD of MS2 coat protein [2] [nM] | apparent KD of MS2 coat protein [3] [nM] | apparent KD of MS2 coat protein (input ligand: FMN 200 uM) [nM] | apparent KD of MS2 coat protein [4] [nM] | apparent KD of MS2 coat protein (input ligand: none) [nM]
AGUCCAGCCUGAGCUGGACUGAAGCAUGUACAUGAGGAUCACCCAUGUUCAUGUACAGGCUUUUUGCUCGUCUUAUG [JL-shm-2.02 JL mod] (puzzle: Sensor for hsa-mir-208a) | 842 | 18.2 | 879 | – | – | –
AGUCCAGCCUGAGCUGGACUGAAGCAUGUACAUGAGGAUCACCCAUGUUCAUGUGCAGGCUUUUUGCUCGUCUUAUG [JL-shm-2.01 JL mod] (puzzle: Sensor for hsa-mir-208a) | 84.7 | 13.5 | 108 | – | – | –
AGUCCAGCGAAAGCUGGACAAAAGCAUGUACAUGAGGAUCACCCAUGUUCAUGUACAAGCUUUUUGCUCGUCUUGAA [JL mod - D95 - 9] (puzzle: Sensor for hsa-mir-208a) | 313 | 17.1 | 611 | – | – | –
AGUCCAGCGAAAGCUGGACAAAAGCGUGUACAUGAGGAUCACCCAUGUUCAUGUACAAGCUUUUUGCUCGUCUUAAA [JL mod - D95 - 6] (puzzle: Sensor for hsa-mir-208a) | 30.7 | 17.3 | 96.2 | – | – | –
AGUCGAGCCUGAGCUCGACAAAAGCAUGUACAUGAGGAUCACCCAUGUCAUGUACAAGCUUUUUGCUCGUCUUAAAA [Mat - hsa-mir-208a - Mod of JL - D19] (puzzle: Sensor for hsa-mir-208a) | 238 | 13.5 | 264 | – | – | –
AGUGGAGCCUGAGCUCCACAAAAGCAUGUACAUGAGGAUCACCCAUGUCAUGUACAAGCUUUUUGCUCGUCUUAAAA [Mat - hsa-mir-208a - Mod of JL - D18] (Eterna round: R96, puzzle: Sensor for hsa-mir-208a) | – | – | – | 552 | 14 | 502
AGUGGAGCCUGAGCUCCACAAAAGCAUGUACAUGAGGAUCACCCAUGUCAUGUACAAGCUUUUUGCUCGUCUUAAAA [Mat - hsa-mir-208a - Mod of JL - D18] (puzzle: Sensor for hsa-mir-208a) | 536 | 18.8 | 423 | – | – | –
AUAAAACAUGAGGAUCACCCAUGUCAACAAAGUCGAGGAUAUGGGCAAAGAAAAGAAUAACCAGAAGGCGAAUAAU [salish99_ss1_r3_055] (puzzle: Same State 1) | 51.5 | 315 | 316 | – | – | –
AUAAAACAUGAGGAUCACCCAUGUCUCUAAAGUCGAGGAUAUGGGCAAAUAAUAUAAGAACCAGAAGGCGAAUAAU [SS1 Teenbexe 3] (puzzle: Same State 1) | 58.1 | 51.2 | 530 | – | – | –
AUAACAAUGGCAGGAUAUGGGAUUGGAAGUGUUCCAGAAGGGCCAUAACGGCGAUGGACAUGAGGAUCACCCAUGUCUUAGCCU [MOD2 Powerstrip SSNG 1.4] (Eterna round: R96, puzzle: Same State NG 1) | – | – | – | 14.3 | 6.26 | 15
AUAAGUUCGAUGCUCGUCUCUCCGUACAAACAUGAGGAUCACCCAUGUGACUGGGCAAUAGCCCAAUCAGUAUGGCC [Beongetiqu] (puzzle: Sensor for hsa-mir-208a) | 34.8 | 22.8 | 34.4 | – | – | –
AUAAGUUUGAUGCUCGUCUCUCCGUACAAACAUGAGGAUCACCCAUGUGGUCGGGAAGUAGCCCGGCCAGUAUGACC [Rigebelain] (puzzle: Sensor for hsa-mir-208a) | 32.7 | 24.4 | 35.2 | – | – | –
AUACAUAUCAGAGGAUAUCACGUCGUUUAGACGUGAGAAGGCUGAUCACACAUGAAUAUUAAUACAUGAGGAUCACCCAUGUAU [SSNG1/14-A3] (Eterna round: R96, puzzle: Same State NG 1) | – | – | – | 13.7 | 13.4 | 20.9
AUAGUUGCCGAAGGAUAUGAUGAGGAUCACCCAUCAGAAGGUCGGCUAUUGGGUGGACAUGAGGAUCACCCGUGUUCUUUGGUC (Eterna round: R96, puzzle: Same State NG 1) | – | – | – | 30.6 | 22.5 | 32.3
AUAGUUGCCGAAGGAUAUGAUGAGGAUCACCCAUCAGAAGGUUGGCUAUUGGGUGGACAUGAGGAUCACCCGUGUUCUUUGGUA (Eterna round: R96, puzzle: Same State NG 1) | – | – | – | 50.3 | 47.5 | 82.1
AUAGUUUCCGAAGGAUAUGAUGAGGAUCACCCAUCAGAAGGUUGGCUAUUGGGCGGACAUGAGGAUCACCCAUGUCUUUCUGUU (Eterna round: R96, puzzle: Same State NG 1) | – | – | – | 12.7 | 10.7 | 18

Sequence | apparent KD of MS2 coat protein [1] [nM] | apparent KD of MS2 coat protein [2] [nM] | apparent KD of MS2 coat protein [3] [nM] | apparent KD of MS2 coat protein (input ligand: FMN 200 uM) [nM] | apparent KD of MS2 coat protein [4] [nM] | apparent KD of MS2 coat protein (input ligand: none) [nM]
AUAUCCUUUUUAUACAUGAGGAUCACCCAUGUUUUUCUUACGUAGGAUAUCGUUGUUUUUUUUUACGAGAAGGACGUAGAAUGU [JR_SSND3_Sub063] (Eterna round: R96, puzzle: Same State NG 3) | – | – | – | – | 23.5 | –
AUAUGAGAAGCAGGAUAUGCGGAGAAGAAAGAAGCAGAAGGGCUUAUGGGACAACAUGAGGAUCACCCAUGUUCUCUGUGAUGA [AK SSNG1-V2-3] (Eterna round: R96, puzzle: Same State NG 1) | – | – | – | 24.3 | 48.9 | 56.5
AUAUGAGCUAUGGAGGAUAUCCAUAACAAGACAUGAGGAUCACCCAUGUAAUCAAAACAAUAAUGGGAGAAGGCCAUAGCUCAAU [SS 2 M47] (Eterna round: R96, puzzle: Same State 2) | – | – | – | – | 46.9 | –
AUAUGAGGAGCAGGAUAUGCGGAGAAGAAAGAAGCAGAAGGGCUCAUGGGACGACAUGAGGAUCACCCAUGUACUCCGCGAUGA [AK SSNG1-V2-5] (Eterna round: R96, puzzle: Same State NG 1) | – | – | – | 103 | 520 | 1350
AUGCCAAAUGGAGGAUAUGGAGCCUUAUUGGCUCCAGAAGGUCAAACAUGAGGAUCACCCAUGUGGCAGUGGUCUAAUGACCAC [Eli NG1ss - 45] (Eterna round: R96, puzzle: Same State NG 1) | – | – | – | 110 | 192 | 368
AUGGUGCAGGUACAGGAUAUGUUGCUCGUAACAUGAGGAUCACCCAUGUACCUAUGAGAUUAAAUGCAGAAGGGUGCACACCACA [Mat - Same State 2 - Mod of UCT - D88] (puzzle: Same State 2) | 40.8 | 325 | 283 | – | – | –
AUUAAACAUGAGGAUCACCCAUGUCAACAAAGUCGAGGAUAUGGGCAAAUAAAAUAAGAACCAGAAGGCGUAUAAU [salish99_ss1_r3_077] (puzzle: Same State 1) | 75.9 | 363 | 636 | – | – | –
AUUAAACAUGAGGAUCACCCAUGUCAACAAAGUCGAGGAUAUGGGCAAAUAAAAUAAGAUCCAGAAGGCGAAUAAU [salish99_ss1_r3_067] (puzzle: Same State 1) | 55.7 | 16.8 | 19.5 | – | – | –
AUUAAACAUGAGGAUCACCCAUGUCAACAAAGUCGAGGAUAUGGGCAAAUAAAAUAUGAACCAGAAGGCGAAUAAU [salish99_ss1_r3_064] (Eterna round: R96, puzzle: Same State 1) | – | – | – | 32.9 | 208 | 263
AUUAAACAUGAGGAUCACCCAUGUCAACAAAGUCGAGGAUAUGGGCAAAUAAAAUAUGAACCAGAAGGCGAAUAAU [salish99_ss1_r3_064] (puzzle: Same State 1) | 32.1 | 220 | 412 | – | – | –
AUUAAACAUGAGGAUCACCCAUGUCAACAAAGUCGAGGAUAUGGGCAAAUAAUAUAAGAACCAGAAGGCGAAUAAU [salish99_ss1_r3_058] (puzzle: Same State 1) | 32.1 | 440 | 275 | – | – | –
AUUAAUAAUGCAGGAUAUGAUUAACAUGAGGAUCACCCAUGUGGUGUUGUGAGUAAGGAGAGUGAUCAGAAGGGCAUUUUUUUU [JMF's solution 27] (Eterna round: R96, puzzle: Same State NG 2) | – | – | – | 552 | 374 | 385
AUUACGAGCGUAGGAUAUGGGAAAGGAAGUGUACCAGAAGGACGAAUACAGCGUCCGGACAUGAGGAUCACCCAUGUAGGACGC [PowerStrip SSNG 1.19] (Eterna round: R96, puzzle: Same State NG 1) | – | – | – | 11.5 | 21.8 | 26.1
AUUAUGUAUGCAGGAUAUGAUUAACAUGAGGAUCACCCAUGUGGUGUUGUGAGUAAGGAGAGUGAUCAGAAGGGCAUUUUUUUU [JMF's solution 64] (Eterna round: R96, puzzle: Same State NG 2) | – | – | – | 555 | 333 | 381
AUUAUUUCAUGAGGAUAUGGCACCUUAUUGGUGCCAGAAGGCAUGUCUAUAAGACAUGAGGAUCACCCAUGUUUAAAUUAUAUA [Eli NG1ss - 90] (Eterna round: R96, puzzle: Same State NG 1) | – | – | – | 24.1 | 164 | 181
